# From IntAct's records for PubMed 17129783
# B1: Kinetochore protein ndc-80 (Caenorhabditis elegans), Q17635 (parent)
# chain: MFGDRRKTGGLNLNGRASIAITPTKRFTDYTGSTSVRKTDARPSLSQPRVSLFNTKNSSVAPRDVKSLVSLNGSKIYNFLVEYESSDAPSEQLIMKPRGKNDFIACFELIYQHLSKDYEFPRHERIEEEVSQIFKGLGYPYPLKNSYYQPMGSSHGYPHLLDALSWLIDIIRINSAVSEDTQNILFGDFMEQGKAQEKTLNYAWMTSTFRDYTNDRKAAENPSSSYWDDTKHRLRKYFEQSNEFEDMTKTAASALEMLNYECDEIEADKGNEASLKEEISRIRDDIRKAKDYLEQNLHVKQHMEKELAMVKSEQEEKISENEKVQKMVDDLKNKIELQKQIHGLTGKEVRQMNLDNNKDKEVVLEIQSELDRLSKETWKLKDEDFFKEQKSKFIHLAEQIMKILSGLNIQMNLEPLRAPTNERDLKDYWETLNKIWVPEISRQLHQRKLELETEQSRFSNKAVTAEERIQIQSETLCEAKKNEAREERIRRNERDSWKDARKHIEQRYEQLLNEKEVLLKQMKLDGSLEKEIEDETARMSATGEEHIQKRSQLEAGIRQILDLMVVEIAEIENKKIGFHVQCAGIEKAVL
# partner: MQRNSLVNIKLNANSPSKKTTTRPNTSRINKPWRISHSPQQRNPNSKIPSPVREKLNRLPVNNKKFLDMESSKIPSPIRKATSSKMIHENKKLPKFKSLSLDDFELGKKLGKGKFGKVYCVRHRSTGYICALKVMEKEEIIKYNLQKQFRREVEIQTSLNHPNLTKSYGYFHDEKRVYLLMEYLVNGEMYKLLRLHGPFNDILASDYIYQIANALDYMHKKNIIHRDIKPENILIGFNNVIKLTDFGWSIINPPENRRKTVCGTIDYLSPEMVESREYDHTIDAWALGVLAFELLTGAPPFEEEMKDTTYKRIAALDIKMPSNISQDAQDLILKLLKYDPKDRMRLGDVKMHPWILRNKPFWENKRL
# Variants of: B1
# Conditions: with aurk_yeast IPL1, P38991
row,Variant,effect of a mutation on the interaction
1,MFGDRRKAGGLNLNGRAAIAITPTKRFTDYTGSTSVRKTDARPALSQPRVALFNTKNSSVAPRDVKSLVSLNGSKIYNFLVEYESSDAPSEQLIMKPRGKNDFIACFELIYQHLSKDYEFPRHERIEEEVSQIFKGLGYPYPLKNSYYQPMGSSHGYPHLLDALSWLIDIIRINSAVSEDTQNILFGDFMEQGKAQEKTLNYAWMTSTFRDYTNDRKAAENPSSSYWDDTKHRLRKYFEQSNEFEDMTKTAASALEMLNYECDEIEADKGNEASLKEEISRIRDDIRKAKDYLEQNLHVKQHMEKELAMVKSEQEEKISENEKVQKMVDDLKNKIELQKQIHGLTGKEVRQMNLDNNKDKEVVLEIQSELDRLSKETWKLKDEDFFKEQKSKFIHLAEQIMKILSGLNIQMNLEPLRAPTNERDLKDYWETLNKIWVPEISRQLHQRKLELETEQSRFSNKAVTAEERIQIQSETLCEAKKNEAREERIRRNERDSWKDARKHIEQRYEQLLNEKEVLLKQMKLDGSLEKEIEDETARMSATGEEHIQKRSQLEAGIRQILDLMVVEIAEIENKKIGFHVQCAGIEKAVL [T8A;S18A;S44A;S51A],disrupting interaction
